Changes are numbered by the printed parent chain.
B1: UCM7 (other)
heavy 1: QVQLVQSGVEVKKPGASVKVSCKASGYTFTNYYMYWVRQAPGQGLEWMGGINPSNGGTNFNEKFKNRVTLTTDSSTTTAYMELKSLQFDDTAVYYCARRDYRFDMGFDYWGQGTTVTVSSASTKGPSVFPLAPSSKSTSGGTAALGCLVKDYFPEPVTVSWNSGALTSGVHTFPAVLQSSGLYSLSSVVTVPSSSLGTQTYICNVNHKPSNTKVDKKVEPKSCDKTHTCPPCPAPELLGGPSVFLFPPKPKDTLMISRTPEVTCVVVDVSHEDPEVKFNWYVDGVEVHNAKTKPREEQYASTYRVVSVLTVLHQDWLNGKEYKCKVSNKALPAPIEKTISKAKGQPREPQVYTLPPCRDELTKNQVSLWCLVKGFYPSDIAVEWESNGQPENNYKTTPPVLDSDGSFFLYSKLTVDKSRWQQGNVFSCSVMHEALHNRFTQKSLSLSPGGGSSPPGGGSSGGGSGPAPTSSSTKKTQLQLEHLLLDLQMILNGINNYKNPKLTAMLTAKFAMPKKATELKHLQCLEEALKPLEEVLNLAQSKNFHLRPRDLISNINVIVLELKGSETTFMCEYADETATIVEFLNRWITFAQSIISTLT
heavy 2: QVQLVQSGVEVKKPGASVKVSCKASGYTFTNYYMYWVRQAPGQGLEWMGGINPSNGGTNFNEKFKNRVTLTTDSSTTTAYMELKSLQFDDTAVYYCARRDYRFDMGFDYWGQGTTVTVSSASTKGPSVFPLAPSSKSTSGGTAALGCLVKDYFPEPVTVSWNSGALTSGVHTFPAVLQSSGLYSLSSVVTVPSSSLGTQTYICNVNHKPSNTKVDKKVEPKSCDKTHTCPPCPAPELLGGPSVFLFPPKPKDTLMISRTPEVTCVVVDVSHEDPEVKFNWYVDGVEVHNAKTKPREEQYASTYRVVSVLTVLHQDWLNGKEYKCKVSNKALPAPIEKTISKAKGQPREPQVCTLPPSRDELTKNQVSLSCAVKGFYPSDIAVEWESNGQPENNYKTTPPVLDSDGSFFLVSKLTVDKSRWQQGNVFSCSVMHEALHNHYTQKSLGGPLGLGGSSGSGGSGGGSGSGGGEVQLVESGGGLVQPGGSLRLSCAASGSIFSINVMGWYRQAPGKQRELVAAISSGGSTNYADSVKGRFTISRDNAKNTVYLQMNSLKPEDTAVYYCMYASSWYEDETDYWGQGTQVTVSS
light: EIVLTQSPATLSLSPGERATLSCRASKGVSTSGYSYLHWYQQKPGQAPRLLIYLASYLESGVPARFSGSGSGTDFTLTISSLEPEDFAVYYCQHSRDLPLTFGGGTKVEIKRTVAAPSVFIFPPSDEQLKSGTASVVCLLNNFYPREAKVQWKVDNALQSGNSQESVTEQDSKDSTYSLSSTLTLSKADYEKHKVYACEVTHQGLSSPVTKSFNRGEC
B2: UCM8 (other)
heavy 1: B1 heavy 1
heavy 2: QVQLVQSGVEVKKPGASVKVSCKASGYTFTNYYMYWVRQAPGQGLEWMGGINPSNGGTNFNEKFKNRVTLTTDSSTTTAYMELKSLQFDDTAVYYCARRDYRFDMGFDYWGQGTTVTVSSASTKGPSVFPLAPSSKSTSGGTAALGCLVKDYFPEPVTVSWNSGALTSGVHTFPAVLQSSGLYSLSSVVTVPSSSLGTQTYICNVNHKPSNTKVDKKVEPKSCDKTHTCPPCPAPELLGGPSVFLFPPKPKDTLMISRTPEVTCVVVDVSHEDPEVKFNWYVDGVEVHNAKTKPREEQYASTYRVVSVLTVLHQDWLNGKEYKCKVSNKALPAPIEKTISKAKGQPREPQVCTLPPSRDELTKNQVSLSCAVKGFYPSDIAVEWESNGQPENNYKTTPPVLDSDGSFFLVSKLTVDKSRWQQGNVFSCSVMHEALHNHYTQKSLSLPLGLGGSSGSGGSGGGSGSGGGSGGSGGEVQLVESGGGLVQPGGSLRLSCAASGSIFSINVMGWYRQAPGKQRELVAAISSGGSTNYADSVKGRFTISRDNAKNTVYLQMNSLKPEDTAVYYCMYASSWYEDETDYWGQGTQVTVSS
light: B1 light
B3: UCM2 (other)
heavy 1: B1 heavy 1
heavy 2: B1 heavy 2 with G445S, G446L
light: B1 light
B4: UCM4 (other)
heavy 1: B1 heavy 1
heavy 2: B1 heavy 2 with S443M, L444P, G445Y, G446D, P447L, L448Y, G449H, L450P
light: B1 light
B5: UCM5 (other)
heavy 1: B1 heavy 1
heavy 2: B1 heavy 2 with Q441A, K442P, S443A, L444G, G445L, G446I, P447V, L448P, G449Y, L450N
light: B1 light
B6: UCM6 (other)
heavy 1: B1 heavy 1
heavy 2: B1 heavy 2 with Q441P, K442A, S443N, G445V, G446A, L448D, G449P, L450G
light: B1 light

target: PD-1 from the PD-1 effector cells (UniProt Q15116 25-288, limits assumed); experiment: cell-based or functional assay
Sequence (Q15116 25-288 limits assumed): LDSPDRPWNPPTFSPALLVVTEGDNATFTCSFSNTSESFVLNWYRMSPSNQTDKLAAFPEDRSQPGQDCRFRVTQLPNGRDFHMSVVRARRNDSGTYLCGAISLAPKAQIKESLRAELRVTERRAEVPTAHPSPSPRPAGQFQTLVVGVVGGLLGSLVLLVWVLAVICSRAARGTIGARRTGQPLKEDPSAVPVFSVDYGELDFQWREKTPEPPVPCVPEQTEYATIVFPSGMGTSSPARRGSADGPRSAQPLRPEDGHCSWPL

Binder	EC50 (nM), fold induction of luminescence in the PD-1/PD-L1 Blockade Bioassay [nM]
B1	1.36
B2	1.09
B3	0.84
B4	1.28
B5	1.15
B6	1.2
